This test concerns the target human EphA2 receptor on human cardiac stem cells (hCSCs) (human, UniProt P29317 24-976). Kind of test: cell-based or functional assay.

human EphA2 receptor on human cardiac stem cells (hCSCs), sequence (P29317 24-976 limits assumed): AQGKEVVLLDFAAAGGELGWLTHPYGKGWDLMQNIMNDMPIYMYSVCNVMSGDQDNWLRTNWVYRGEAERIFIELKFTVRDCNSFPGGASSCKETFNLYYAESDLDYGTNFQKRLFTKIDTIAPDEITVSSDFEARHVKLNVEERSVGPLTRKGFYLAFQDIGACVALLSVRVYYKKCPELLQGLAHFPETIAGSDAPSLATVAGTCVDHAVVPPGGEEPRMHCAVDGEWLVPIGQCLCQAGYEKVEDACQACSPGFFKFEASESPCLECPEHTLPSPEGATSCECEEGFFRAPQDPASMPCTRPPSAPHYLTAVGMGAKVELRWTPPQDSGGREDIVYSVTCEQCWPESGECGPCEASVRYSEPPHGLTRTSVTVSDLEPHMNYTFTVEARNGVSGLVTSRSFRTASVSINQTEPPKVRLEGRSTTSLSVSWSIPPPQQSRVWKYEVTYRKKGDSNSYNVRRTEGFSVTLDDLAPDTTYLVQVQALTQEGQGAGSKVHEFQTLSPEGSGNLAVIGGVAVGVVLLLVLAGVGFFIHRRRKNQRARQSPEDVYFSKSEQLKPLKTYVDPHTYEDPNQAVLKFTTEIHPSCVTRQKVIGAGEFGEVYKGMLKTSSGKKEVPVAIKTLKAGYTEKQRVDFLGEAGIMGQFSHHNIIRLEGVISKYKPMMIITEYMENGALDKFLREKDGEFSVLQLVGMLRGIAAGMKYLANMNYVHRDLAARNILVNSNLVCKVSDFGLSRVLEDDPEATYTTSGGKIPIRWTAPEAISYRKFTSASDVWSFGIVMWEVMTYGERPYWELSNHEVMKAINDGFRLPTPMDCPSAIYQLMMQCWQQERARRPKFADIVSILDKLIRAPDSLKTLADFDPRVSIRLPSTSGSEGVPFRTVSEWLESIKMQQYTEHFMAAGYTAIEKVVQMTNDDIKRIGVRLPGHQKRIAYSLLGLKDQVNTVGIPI

B1: human ephrin A1-Fcy chimeric protein (ephrin A1-Fc) (Fc fusion, UniProt P20827 19-182, looked up, not shown: a dimerising Fc or GST)
chain: DRHTVFWNSSNPKFRNEDYTIHVQLNDYVDIICPHYEDHSVADAAMEQYILYLVEHEEYQLCQPQSKDQVRWQCNRPSAKHGPEKLSEKFQRFTPFTLGKEFKEGHSYYYISKPIHQHEDRCLRLKVTVSGKITHSPQAHDNPQEKRLAADDPEVRVLHSIGHS
On to B1, for which the “speed of locomotion of hCSCs within the myocardium (two-photon microscopy)” value was determined as 2 fold.

The values are drawn from patent US20120288481A1 (BRIGHAM AND WOMEN S HOSPITAL, published 2012).
